56 molecules from paper doi:10.1101/2024.10.30.620795 (2024) can be followed below.

Sequences and labels used below:
B1: 684 (TCR)
alpha TRAV38-1 TRAJ31 CDR3: CAFMKLGNNARLMF
beta TRBV10-3 TRBJ1-5 CDR3: CAISGPEINQPQHF
B2: 718 (TCR)
alpha TRAV3 TRAJ45 CDR3: CAVRQTGGGADGLTF
beta TRBV29-1 TRBJ2-2 CDR3: CSVPGLVYPGELFF
B3: 7100 (TCR)
alpha TRAV21 TRAJ43 CDR3: CAVRGGDMRF
beta TRBV6-6 TRBJ2-7 CDR3: CASTNRGDISYEQYF
B4: 10832 (TCR)
alpha TRAV12-2 TRAJ53 CDR3: CAVNPRGGGSNYKLTF
beta TRBV29-1 TRBJ2-7 CDR3: CSAQTAWPYEQYF
B5: 2722 (TCR)
alpha TRAV21 TRAJ45 CDR3: CAVRGADGLTF
beta TRBV6-6 TRBJ2-7 CDR3: CASTNRASDSYEQYF
B6: 6254 (TCR)
alpha TRAV21 TRAJ10 CDR3: CAVGGGGGNKLTF
beta TRBV11-2 TRBJ1-2 CDR3: CASSLLWVGDYGYTF
B7: 6265 (TCR)
alpha TRAV30 TRAJ49 CDR3: CGTAPLTGNQFYF
beta TRBV18 TRBJ1-1 CDR3: CASSHSGTAYTEAFF
B8: 1735 (TCR)
alpha TRAV21 TRAJ11 CDR3: CAVTRGGYSTLTF
beta TRBV12-3 TRBJ2-1 CDR3: CASSLGTGGIDEQFF
B9: 841.2 (TCR)
alpha TRAV25 TRAJ38 CDR3: CAGPINAGNNRKLIW
beta TRBV6-5 TRBJ2-7 CDR3: CASSLDRVRGNSYEQYF
B10: 6808 (TCR)
alpha TRAV17 TRAJ45 CDR3: CATKRGADGLTF
beta TRBV6-5 TRBJ1-2 CDR3: CASSYGGDVYGYTF
B11: 11870 (TCR)
alpha TRAV12-1 TRAJ9 CDR3: CVVNRGTGGFKTIF
beta TRBV27 TRBJ1-6 CDR3: CASMLASYNSPLHF
B12: 11151 (TCR)
alpha TRAV12-2 TRAJ53 CDR3: CAVNSGGSGGSNYKLTF
beta TRBV29-1 TRBJ2-7 CDR3: CSAQQGWPYEQYF
B13: 832 (TCR)
alpha TRAV13-1 TRAJ6 CDR3: CAAGSSGGSYIPTF
beta TRBV7-7 TRBJ2-1 CDR3: CASSLEGHRGLYNEQFF
B14: 509 (TCR)
alpha TRAV12-1 TRAJ36 CDR3: CVVTDLFF
beta TRBV27 TRBJ2-2 CDR3: CASSPRTGVAGELFF
B15: 297 (TCR)
alpha TRAV12-2 TRAJ33 CDR3: CAVSQGGVSNYQLIW
beta TRBV29-1 TRBJ2-7 CDR3: CSVFTGWPYEQYF
B16: 5469 (TCR)
alpha TRAV12-2 TRAJ53 CDR3: CAVNWGGGSNYKLTF
beta TRBV29-1 TRBJ2-7 CDR3: CSVGQGWPYEQYF
B17: 8483 (TCR)
alpha TRAV21 TRAJ20 CDR3: CAVYFRSNDYKLSF
beta TRBV20-1 TRBJ2-7 CDR3: CSATGTVNYEQYF
B18: 4350 (TCR)
alpha TRAV29/DV5 TRAJ42 CDR3: CAASLNYGGSQGNLIF
beta TRBV19 TRBJ1-1 CDR3: CASSSKDITVTEAFF
B19: 5251 (TCR)
alpha TRAV12-2 TRAJ53 CDR3: CAVNGGGGSNYKLTF
beta TRBV29-1 TRBJ2-7 CDR3: CSVGTGWPYEQYF
B20: 11253 (TCR)
alpha TRAV21 TRAJ40 CDR3: CAVRGGFGSGTYKYIF
beta TRBV28 TRBJ1-2 CDR3: CASRTTRANYGYTF
B21: 8395 (TCR)
alpha TRAV21 TRAJ45 CDR3: CAGGGGADGLTF
beta TRBV6-6 TRBJ2-3 CDR3: CASSYPSPDTQYF
B22: 7156 (TCR)
alpha TRAV29/DV5 TRAJ49 CDR3: CAASGGNQFYF
beta TRBV5-5 TRBJ2-2 CDR3: CASSAPGGVDTGELFF
B23: 66 (TCR)
alpha TRAV21 TRAJ41 CDR3: CAVQSSGSGYALNF
beta TRBV5-5 TRBJ2-7 CDR3: CASTKGTDSYEQYF
B24: 2495 (TCR)
alpha TRAV19 TRAJ23 CDR3: CALRIYNQGGKLIF
beta TRBV5-1 TRBJ2-1 CDR3: CASSTGLAGMSSYNEQFF
B25: 11949 (TCR)
alpha TRAV35 TRAJ36 CDR3: CAGQLETGANNLFF
beta TRBV10-3 TRBJ2-3 CDR3: CAINPGTSGRWGTDTQYF
B26: 4160 (TCR)
alpha TRAV35 TRAJ21 CDR3: CAGLYNFNKFYF
beta TRBV19 TRBJ1-1 CDR3: CASSTLRGDNRGTEAFF
B27: 545 (TCR)
alpha TRAV38-1 TRAJ23 CDR3: CALRGNQGGKLIF
beta TRBV7-9 TRBJ2-7 CDR3: CASSPDGMHEQYF
B28: 8915 (TCR)
alpha TRAV29/DV5 TRAJ49 CDR3: CAAWSRGTGNQFYF
beta TRBV20-1 TRBJ2-1 CDR3: CSARDRWEGRTNEQFF
B29: 3936 (TCR)
alpha TRAV12-3 TRAJ33 CDR3: CAMRSNYQLIW
beta TRBV27 TRBJ2-3 CDR3: CASSPSQGTQYF
B30: 6548 (TCR)
alpha TRAV12-3 TRAJ33 CDR3: CASRSNYQLIW
beta TRBV6-1 TRBJ1-5 CDR3: CASSDAQAPQHF
B31: 3155 (TCR)
alpha TRAV12-3 TRAJ33 CDR3: CAMRSNYQLIW
beta TRBV6-5 TRBJ2-1 CDR3: CASSYAQGAQFF
B32: 317 (TCR)
alpha TRAV12-3 TRAJ33 CDR3: CAMRSNYQLIW
beta TRBV6-5 TRBJ2-7 CDR3: CASSYAQGEQYF
B33: 6743 (TCR)
alpha TRAV5 TRAJ15 CDR3: CAGSRTGTALIF
beta TRBV27 TRBJ2-6 CDR3: CASSTGIVTGANVLTF
B34: 5226 (TCR)
alpha TRAV21 TRAJ49 CDR3: CAVRGNQFYF
beta TRBV6-2 TRBJ2-1 CDR3: CASSYVVVQGVPYNEQFF
B35: 6844 (TCR)
alpha TRAV12-3 TRAJ33 CDR3: CAGRSNYQLIW
beta TRBV30 TRBJ2-7 CDR3: CAWSPSGSPLEQYF
B36: 201 (TCR)
alpha TRAV19 TRAJ4 CDR3: CALSLSGGYNKLIF
beta TRBV6-6 TRBJ2-7 CDR3: CASSQGVIDEQYF
B37: 7894 (TCR)
alpha TRAV5 TRAJ39 CDR3: CAQNAGNMLTF
beta TRBV27 TRBJ1-1 CDR3: CASSLAPNTEAFF
B38: 5245 (TCR)
alpha TRAV30 TRAJ34 CDR3: CGTEIRGKLIF
beta TRBV27 TRBJ1-5 CDR3: CASSLGFPNQPQHF
B39: 4386 (TCR)
alpha TRAV14/DV4 TRAJ10 CDR3: CAKAGGGNKLTF
beta TRBV7-6 TRBJ2-1 CDR3: CASSLTTGQGPHNEQFF
B40: 5576.2 (TCR)
alpha TRAV12-3 TRAJ49 CDR3: CAMKRDQFYF
beta TRBV6-2 TRBJ2-7 CDR3: CASRTIDLLAGEYEQYF
B41: 225 (TCR)
alpha TRAV12-2 TRAJ41 CDR3: CAVGNSGYALNF
beta TRBV11-2 TRBJ2-1 CDR3: CASLEGPGNEQFF
B42: 5170 (TCR)
alpha TRAV12-3 TRAJ33 CDR3: CAMRSNYQLIW
beta TRBV6-1 TRBJ1-5 CDR3: CASSEAQGPQHF
B43: 11751 (TCR)
alpha TRAV21 TRAJ49 CDR3: CAVRPPGNQFYF
beta TRBV6-4 TRBJ2-1 CDR3: CASSPVGTQGYNEQFF
B44: 5458 (TCR)
alpha TRAV29/DV5 TRAJ47 CDR3: CAATGGNKLVF
beta TRBV5-5 TRBJ2-7 CDR3: CASSHPLGVSSYEQYF
B45: 7734 (TCR)
alpha TRAV21 TRAJ29 CDR3: CAVRAGNTPLVF
beta TRBV6-2 TRBJ1-1 CDR3: CASSYTTGTVIPNTEAFF
B46: 2123 (TCR)
alpha TRAV14/DV4 TRAJ43 CDR3: CAMRDLGDMRF
beta TRBV27 TRBJ1-2 CDR3: CASSFWDRRYGYTF
B47: 2058 (TCR)
alpha TRAV39 TRAJ49 CDR3: CAEGNQFYF
beta TRBV7-9 TRBJ2-1 CDR3: CASSLALAGRNYNEQFF
B48: 10813 (TCR)
alpha TRAV3 TRAJ45 CDR3: CAVRDSGGGADGLTF
beta TRBV29-1 TRBJ2-2 CDR3: CSVPGLVFPGELFF
B49: 11195 (TCR)
alpha TRAV19 TRAJ32 CDR3: CALRYGGATNKLIF
beta TRBV7-6 TRBJ1-2 CDR3: CASSLEGPYGYTF
B50: 7287 (TCR)
alpha TRAV16 TRAJ17 CDR3: CALRSPAAGNKLTF
beta TRBV27 TRBJ2-5 CDR3: CASSFAEGTQYF
B51: 763 (TCR)
alpha TRAV19 TRAJ32 CDR3: CALRYGGATNKLIF
beta TRBV7-6 TRBJ1-2 CDR3: CASSLEGVGGYTF
B52: 11155 (TCR)
alpha TRAV16 TRAJ37 CDR3: CALNSNTGKLIF
beta TRBV27 TRBJ2-1 CDR3: CASSSFLLAGGGGNSNEQFF
B53: 11085.2 (TCR)
alpha TRAV2 TRAJ6 CDR3: CAVEDPAGGSYIPTF
beta TRBV20-1 TRBJ2-7 CDR3: CSARGATGDFYEQYF
B54: 386 (TCR)
alpha TRAV21 TRAJ52 CDR3: CAVRPGRGTSYGKLTF
beta TRBV19 TRBJ2-3 CDR3: CASSMGAGGAADTQYF
B55: 6319 (TCR)
alpha TRAV21 TRAJ22 CDR3: CAVKTSGSARQLTF
beta TRBV27 TRBJ2-3 CDR3: CASSSPPISVATDTQYF
B56: 7094 (TCR)
alpha TRAV12-3 TRAJ33 CDR3: CAMRSNYQLIW
beta TRBV30 TRBJ2-7 CDR3: CAWRLQGAGEQYF

The experiment concerns the target T1, A*01/LTD peptide on A*01/LTD (human).
T1 peptide: LTDEMIAQY
As to the kind of experiment: activation reporter or marker.
In the case of B1, the binding result was “recognises”.

As to B2, the binding result is listed as “recognises”.

Regarding B3, the binding result is listed as “recognises”.

On to B4, for which the binding result is recorded as “recognises”.

As to B5, the binding result was “recognises”.

Consider B6, for which the binding result is given as “recognises”.

In the case of B7, the binding result is listed as “recognises”.

For the molecule B8, the binding result is reported as “recognises”.

Consider B9, for which the binding result is listed as “recognises”.

Turning to B10, the binding result was “recognises”.

Consider B11, for which the binding result is “recognises”.

Turning to B12, the binding result is “recognises”.

As for B13, the binding result is “recognises”.

As for B14, the binding result is listed as “recognises”.

For B15, the binding result is listed as “recognises”.

Regarding B16, the binding result is listed as “recognises”.

Consider B17, for which the binding result is listed as “recognises”.

Turning to B18, the binding result is “no recognition”.

Take B19: the binding result is “recognises”.

B20: the binding result is recorded as “recognises”.

In the case of B21, the binding result was “recognises”.

Take B22: the binding result was “recognises”.

Consider B23, for which the binding result is on record as “recognises”.

Take B24: the binding result is “recognises”.

For the molecule B25, the binding result is on record as “recognises”.

For B26, the binding result was “recognises”.

B27: the binding result is “recognises”.

For the molecule B28, the binding result is given as “recognises”.

In the case of B29, the binding result was “recognises”.

Turning to B30, the binding result is “recognises”.

As for B31, the binding result is reported as “recognises”.

Consider B32, for which the binding result is reported as “recognises”.

For the molecule B33, the binding result was “recognises”.

Take B34: the binding result was “recognises”.

B35: the binding result is listed as “recognises”.

In the case of B36, the binding result was “recognises”.

Consider B37, for which the binding result is recorded as “recognises”.

As for B38, the binding result was “recognises”.

Turning to B39, the binding result was “recognises”.

For B40, the binding result is “recognises”.

For B41, the binding result was “recognises”.

Consider B42, for which the binding result was “recognises”.

As to B43, the binding result was “recognises”.

With B44, the binding result is “recognises”.

On to B45, for which the binding result is listed as “recognises”.

For B46, the binding result was “no recognition”.

Consider B47, for which the binding result is “recognises”.

As for B48, the binding result is given as “recognises”.

On to B49, for which the binding result was “recognises”.

For the molecule B50, the binding result is on record as “recognises”.

For the molecule B51, the binding result is on record as “recognises”.

For B52, the binding result is on record as “recognises”.

On to B53, for which the binding result is listed as “recognises”.

Regarding B54, the binding result was “recognises”.

Regarding B55, the binding result is “recognises”.

In the case of B56, the binding result was “recognises”.
